B1: Cell division control protein 48 (Saccharomyces cerevisiae), P25694 (parent)
chain: MGEEHKPLLDASGVDPREEDKTATAILRRKKKDNMLLVDDAINDDNSVIAINSNTMDKLELFRGDTVLVKGKKRKDTVLIVLIDDELEDGACRINRVVRNNLRIRLGDLVTIHPCPDIKYATRISVLPIADTIEGITGNLFDVFLKPYFVEAYRPVRKGDHFVVRGGMRQVEFKVVDVEPEEYAVVAQDTIIHWEGEPINREDEENNMNEVGYDDIGGCRKQMAQIREMVELPLRHPQLFKAIGIKPPRGVLMYGPPGTGKTLMARAVANETGAFFFLINGPEVMSKMAGESESNLRKAFEEAEKNAPAIIFIDEIDSIAPKRDKTNGEVERRVVSQLLTLMDGMKARSNVVVIAATNRPNSIDPALRRFGRFDREVDIGIPDATGRLEVLRIHTKNMKLADDVDLEALAAETHGYVGADIASLCSEAAMQQIREKMDLIDLDEDEIDAEVLDSLGVTMDNFRFALGNSNPSALRETVVESVNVTWDDVGGLDEIKEELKETVEYPVLHPDQYTKFGLSPSKGVLFYGPPGTGKTLLAKAVATEVSANFISVKGPELLSMWYGESESNIRDIFDKARAAAPTVVFLDELDSIAKARGGSLGDAGGASDRVVNQLLTEMDGMNAKKNVFVIGATNRPDQIDPAILRPGRLDQLIYVPLPDENARLSILNAQLRKTPLEPGLELTAIAKATQGFSGADLLYIVQRAAKYAIKDSIEAHRQHEAEKEVKVEGEDVEMTDEGAKAEQEPEVDPVPYITKEHFAEAMKTAKRSVSDAELRRYEAYSQQMKASRGQFSNFNFNDAPLGTTATDNANSNNSAPSGAGAAFGSNAEEDDDLYS
partner: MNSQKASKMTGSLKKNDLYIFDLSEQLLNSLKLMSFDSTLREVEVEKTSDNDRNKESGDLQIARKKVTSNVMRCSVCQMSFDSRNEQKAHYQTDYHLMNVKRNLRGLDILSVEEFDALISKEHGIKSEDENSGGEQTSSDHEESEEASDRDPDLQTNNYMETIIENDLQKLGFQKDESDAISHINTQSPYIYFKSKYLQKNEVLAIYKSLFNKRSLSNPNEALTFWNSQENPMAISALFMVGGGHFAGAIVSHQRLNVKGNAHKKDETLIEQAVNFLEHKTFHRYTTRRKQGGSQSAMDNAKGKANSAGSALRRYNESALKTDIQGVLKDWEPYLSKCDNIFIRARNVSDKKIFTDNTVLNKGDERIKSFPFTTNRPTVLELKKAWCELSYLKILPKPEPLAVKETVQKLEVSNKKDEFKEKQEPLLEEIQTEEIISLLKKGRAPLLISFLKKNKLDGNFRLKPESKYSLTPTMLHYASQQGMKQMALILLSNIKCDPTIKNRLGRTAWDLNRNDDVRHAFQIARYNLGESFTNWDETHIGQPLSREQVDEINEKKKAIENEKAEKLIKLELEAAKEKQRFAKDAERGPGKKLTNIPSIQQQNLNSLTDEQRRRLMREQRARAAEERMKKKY
B2: tRNA endonuclease ANKZF1 (Mus musculus), Q80UU1 (parent)
chain: MAKPAGDAAVGSRSGELFLPSVSSSATSPAPSAAPAPASVSLLSLNGEAPLIRGLSLVSQAPGEALAWAPRTSCPGENTSSGGKVSPYSLEISEKLFCSACDQIFQNHQEQREHYKLDWHRFNLKQRLKNKPLLSASDFEQQSSTGDLSSISGSDDTDSSSEEDLLPLDEGRAESEKPNRPPGFYPHRVLFKNAQGQFLYAYRCVLGPHQIPPEKAELLLQNLQNGGPRYYVVLMAAAGHFAGAIFQGREVVAHKTFHRYTVRAKRGTAQGLQDAHGRASRSAGANLRRYNEAMLYKDVRNLLAGPIWSKALGEAETVLFRAPRSGRSLFFGGQGAPLQRDDPRLWDIPLTTRRPTFGELQRVLHKLTTLQVYDEDPREMVRFHSPETHWKPVREERKKDTEKEKTKVPSDANKPLGQDEEPLKQGSESQEEDGSEVELELVELTLGTLDLREFEVLPKRRRRRKKKERSQEQQCGAHGPLPQQPQDEPFSQPTQEVETPLDTLVYEAKAPGQPELWDTLLAACRAGEVEVLKLQLATGLVDPGVKSLLNAPLGSGGFTLLHAAAAAGRGLVVRLLLEAGADPTVQDSRARPPYTVAADKSTRNEFRRFMEKNLDAYDYNKARVPGPLTQEMEARQATRKKEQKAARRQREQQQRKQREQEEQEQEEQRRFAALSDREKRALAAERRLAAQLGAPSPPVPDSAVASAGRCWSCGVSLQGLIPFHYLDFSFCSTRCLRDHRSQAGRPSS

Variants of: B1
Details: with vms1_yeast VMS1, Q04311

| Variant | effect of a mutation on the interaction |
| --- | --- |
| S565E | decreasing interaction strength |

Variants of: B2
Details: with tera_mouse Vcp

| Variant | effect of a mutation on the interaction |
| --- | --- |
| E685A;R686A;R687A | decreasing interaction strength |
